Reference: the supplement of paper PMC10567573

B1: FBXO3 (parent)
chain: AGGFQQRQGLKYCLPLTFCIHTGL

Variants of: B1
Test: protein stability index of a GFP-peptide fusion (GPS, HEK-293T) (PSI 1-6); higher = more stable
Settings: c terminus: a fixed tail appended
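Further: lentivirally expressed fusions sorted by FACS into six bins by GFP to DsRed ratio, PSI derived from sequencing read proportions per bin multiplied by bin number.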

Protein stability index: each site, then its substitutions
G3: Y 3.02
F4: A 3.49; C 2.66; D 1.87; E 3.03; H 2.54; I 3.07; M 2.69; P 2.09; Q 2.37; R 2.36; S 2.38; T 2.82; Y 2.42
Q5: A 3.05; C 3.02; D 2.34; F 1.98; G 3.92; H 1.87; I 2.17; K 2.88; L 2.32; M 2.17; N 2.77; P 1.71; R 2.27; S 3.59; T 2; V 2.33; W 3.08; Y 3.66
Q6: A 2.26; C 2.8; D 1.89; E 3.6; G 2.7; H 3.73; I 3.58; K 3.51; L 3.23; M 2.1; N 3.27; P 3.26; R 2.77; S 2.81; T 2.67; V 2.68; W 3.85; Y 2.09
R7: C 2.54; D 2.64; E 2.83; F 3.23; G 3.16; H 2.74; I 2.12; L 3.44; N 2.95; P 3.24; S 2.33; T 2.6; V 3.75; Y 2.27
Q8: A 2.82; C 3.53; D 1.88; F 2.59; G 3.4; H 2.66; I 2.51; K 3.23; L 2.56; M 2.24; R 2.99; T 3.56; V 2.22; W 2.88; Y 2.17
G9: C 2.68; D 2.68; E 1.87; F 2.58; H 2.94; I 2.28; K 2.74; L 3.97; M 3.48; N 2.28; Q 2.5; R 1.48; S 3.54; T 3.85; V 2.39; Y 3.4
L10: A 2.95; C 2.26; D 2.84; E 2.19; F 2.03; H 1.64; K 3.64; M 2.56; N 2.56; P 2.2; Q 3.23; S 3.66; T 2.53; V 2.85; W 3.49; Y 3.49
K11: A 2.43; C 2.12; D 3.52; E 2.8; F 3.02; G 3.61; H 2.35; I 3.42; L 2.21; M 1.96; N 1.99; Q 2.75; R 2.03; S 2.74; T 2.45; V 3.35; W 4.04; Y 2.43
Y12: A 3.25; C 2.32; D 2.21; E 2.29; G 3.3; I 2.84; K 2.49; L 3.06; M 2.59; N 1.86; P 1.68; Q 3.79; R 3.39; S 3.56; T 2.2; V 2.36; W 2.43
C13: A 2.85; D 2.67; E 3.1; F 2.94; G 2.48; H 2.57; I 2.94; L 1.69; M 2.51; N 2.93; P 3.01; Q 3; T 3.22; V 3.35; W 3.43; Y 2.22
L14: A 2.7; C 3.66; D 1.78; E 1.97; G 3.59
